Reference: PMC12554172, “Systematic analysis of the RGS2 degron reveals characteristics of substrate recognition by the F-box protein FBXO44” (The Journal of Biological Chemistry, 2025)

Assays:
[1] = treatment of certain blood cancers; background statement; cited from earlier work
Description: RGS2 is rapidly and constitutively degraded by the ubiquitin–proteasomal system ([12], [13]). Dysfunction of this crucial system can lead to accumulation of misfolded or aged proteins, cell cycle arrest, and uncontrolled cell proliferation ([14], [15], [16], [17]), driving various pathologies, including multiple cancers and cardiovascular disease ([18], [19]). Proteasome inhibitors, such as bortezomib (Velcade) and carfilzomib, are used in the treatment of certain blood cancers ([20], [21]). However, the severe side effects associated with these drugs, including neuropathies, fatigue, and anem ...

FBXO44^FBA = molecular target: T1, FBXO44^FBA (Homo sapiens, UniProt Q9H4M3); experiment: Peptide microarray (PEPperPRINT), FLAG-FBXO44^FBA binding; conditions: 2 μg/ml FBXO44^FBA overnight at 4 °C; for Mean % difference from parent peptide (FLAG immunoreactivity): Table S1, RGS2^5–16 single-residue substitution, PBS 0.005% Tween pH 7.4, anti-FLAG DyLight800 fluorescence, three independent experiments with three technical replicates each; for FBXO44^FBA binding in peptide microarray (in words): versus parent RGS2^5–16 peptide, fluorescence
T1 construct: we expressed and purified only this domain for all in vitro studies; 6xHis (N, cleaved yes); MBP (N, cleaved yes); made in house; host or cells: Escherichia coli Rosetta BL21 (λDE3)
T1 sequence (Q9H4M3 71-252 limits assumed): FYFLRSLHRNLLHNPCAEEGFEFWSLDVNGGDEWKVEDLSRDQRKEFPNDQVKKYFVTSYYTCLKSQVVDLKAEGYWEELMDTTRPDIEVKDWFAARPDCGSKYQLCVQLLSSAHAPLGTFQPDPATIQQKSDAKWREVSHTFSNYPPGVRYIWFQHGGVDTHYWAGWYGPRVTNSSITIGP
Description: To do so, we utilized a custom peptide microarray (PEPperPRINT GmbH). The design of this array was twofold: (1) substitution at each position with every other natural eukaryotic amino acid; (2) truncation of the peptide from the C terminus. We assessed the binding of FLAG-FBXO44^FBA to the array utilizing fluorescence immunoreactivity corresponding to the amount of FLAG-FBXO44^FBA bound. […] Substitutions at Asp^12 were not only tolerated but also seemed to improve binding in every case (Fig. 3B). This, combined with the fact that substituting any residue in His^11–Met^16 with Arg, and in most cases with Lys, improved FBXO44^FBA binding, indicating the presence of negative charges at the binding interface.
Figure 2 Systematic mutation of the RGS2 degron alters FBXO44^FBA binding. A custom microarray (PEPperPRINT) was designed where each position of the RGS2^5–16 peptide was substituted for each natural amino acid. We also included truncated peptides on the array. This was incubated with purified FBXO44^FBA and probed with α-FLAG. A, a representative scan of a peptide microarray (top) and a truncated peptide (bottom). B, heatmap of mean fluorescence of quantified microarray scans. The scale represents the mean fluorescence in percentage points across all replicates, normalized to the signal obtained with the original residue at each position. C, heatmap of standard deviation of quantified microarray scans. The scale represents the standard deviation in percentage points across all replicates. […] Residues are color-coded based on properties: blue, positive charge; red, negative charge; orange, uncharged polar; green, hydrophobic; yellow, Cys (C); bright green, Pro (P); and black, Gly (G). […] Results of three independent experiments with three technical replicates each. For a statistical significance summary, see Table S1. FBXO44, F-box only protein 44; RGS2, regulator of G protein signaling 2.
Figure 3 Effects of RGS2^5–16 peptide residue changes on FBXO44^FBA binding. Data are presented as % FLAG immunoreactivity, as compared with the parent peptide residue. […] The original residue is marked in each graph with a vertical dotted line. Boxes extend from the 25th to 75th percentile with a line marking the median. Whiskers extend to the minimum and maximum. Results of three independent experiments with three technical replicates each. Data were analyzed by two-way ANOVA, with Tukey's post hoc test for pairwise comparison (simple effect within columns). Statistical significance is summarized in Table S1 and color-coded according to the legend. FBXO44, F-box only protein 44; RGS2, regulator of G protein signaling 2.
The microarray slide was seated into the incubation tray according to PEPperPRINT's instructions. The array well was then incubated in washing buffer (PBS) with 0.005% Tween (Sigma; P1379, pH 7.4) at room temperature for 15 min on an orbital shaker. Washing buffer was aspirated, and the array was then incubated with Rockland blocking buffer at room temperature for 30 min on an orbital shaker. Blocking buffer was then aspirated, and the array was incubated in staining buffer (washing buffer with 10% Rockland blocking buffer) at room temperature for 15 min on an orbital shaker. Staining buffer was aspirated, and purified FBXO44 FBA domain diluted to 2 μg/ml in staining buffer was added. The array was then placed on an orbital shaker overnight at 4 °C. The FBA domain solution was removed, and an array was washed three times with washing buffer. After the third array was incubated in staining buffer for 15 min at 4 °C on an orbital shaker. The array was then incubated with antibody dilution (anti-FLAG DyLight800 and anti-HA DyLight680, both diluted 1:2000 in staining buffer) for 45 min at 4° C on an orbital shaker. The array was then washed three times with washing buffer. […]

HEK-293T cells = experiment: RGS2 protein levels, baseline and with proteasome inhibitor MG-132; assay type: cell-based, human; conditions: Fig. S4, five or six independent experiments; for change of RGS2 protein levels with MG-132 (Fig. S4): MG-132 10 μM, 4 h; for basal RGS2 protein expression versus RGS2^WT (Fig. S4): no MG-132
Description: Representative Western blot and quantification of three independent experiments. […] Representative Western blot and quantification of three independent experiments. Representative Western blot (D), quantification of knockdown efficiency (E), and effects on RGS protein levels (F) when FBXO44 is knocked down using siRNA. […] Result of three independent experiments. ∗p < 0.05; ∗∗p < 0.01; ∗∗∗p < 0.001 using two-way ANOVA followed by Tukey's post hoc test for pairwise comparisons (C, E, and F). FBXO44, F-box only protein 44; HEK-293T, human embryonic kidney-293T cell line; RGS2, regulator of G protein signaling 2.
Cells were harvested on ice in lysis buffer containing protease inhibitors (50 mM Tris–HCl [pH 7.4], 5 mM NaCl, 0.5 mM EDTA, 1% Triton X-100, 10% cOmplete Protease Inhibitor Cocktail EDTA-free). Lysates were bath sonicated for 10 min at 4 °C, centrifuged at 6000g for 3 min, and the supernatant was used for SDS-PAGE and immunoblotting. Total protein concentration was determined using the Pierce BCA Protein Assay Kit. Samples were diluted to 1 μg/μl in protein sample loading buffer (Li-Cor Biosciences).
Equal amounts of protein in each lane were resolved on a 12% SDS-PAGE gel for 1 h at 160 V. Samples were transferred to an Immobilon-FL PVDF membrane (Millipore) and subjected to Western immunoblot analysis using Li-Cor blocking buffer for both blocking and antibody diluents. Membranes were blocked for 1 h, then incubated for 2 h in primary antibodies as described under “Antibodies,” and finally incubated for 1 h with IRDye secondary antibodies directed at the species of the primary antibody. Following each antibody incubation, membranes were washed four times in PBS with 0.1% Tween-20. Membranes were imaged using an Azure600 imaging system (Azure Biosystems).
Figure S4. Effect of RGS2 mutations on protein stability. Representative western blot and quantification of five or six independent experiments (varies by mutation). The proteasome inhibitor MG-132 (10 μM, 4 h) […]
P15R were predicted to destabilize RGS2, due to increased binding to FBXO44 in the peptide microarray. […]
significant. *P<0.05; ***P<0.001 using two-way ANOVA followed by Tukey’s post hoc test for pairwise

Row | Compound | Mean % difference from parent peptide (FLAG immunoreactivity) (FBXO44^FBA) [%] | other results
1 | CC(C)C[C@H](NC(=O)[C@H](Cc1ccccc1)NC(=O)c1cnccn1)B(O)O [bortezomib] | – | severe side effects [1]: neuropathies, fatigue, and anemia
2 | P15R: array RGS2^5–16 peptide, P15 substituted by R (MFLAVQHDCRRM) | 158 | FBXO44^FBA binding in peptide microarray (in words) (FBXO44^FBA): enhanced FBXO44^FBA binding; change of RGS2 protein levels with MG-132 (Fig. S4) (HEK-293T cells): none of these mutations resulted in significant changes in basal expression or response to MG-132; basal RGS2 protein expression versus RGS2^WT (Fig. S4) (HEK-293T cells): none of these mutations resulted in significant changes in basal expression
3 | D12P: array RGS2^5–16 peptide, D12 substituted by P (MFLAVQHPCRPM; UniProt P41220 5-16, looked up, variant D12P) | 66.54 | –
4 | M16K: array RGS2^5–16 peptide, M16 substituted by K (MFLAVQHDCRPK; UniProt P41220 5-16, looked up, variant M16K) | 38.94 | –
5 | C13Q: array RGS2^5–16 peptide, C13 substituted by Q (MFLAVQHDQRPM; UniProt P41220 5-16, looked up, variant C13Q) | -77.02 | –
6 | H11R: array RGS2^5–16 peptide, H11 substituted by R (MFLAVQRDCRPM) | 41.19 | FBXO44^FBA binding in peptide microarray (in words) (FBXO44^FBA): modest effects, with only one or two substitutions for each reaching significance
7 | CC(C)C[C@H](NC(=O)[C@H](CCc1ccccc1)NC(=O)CN1CCOCC1)C(=O)N[C@@H](Cc1ccccc1)C(=O)N[C@@H](CC(C)C)C(=O)[C@@]1(C)CO1 [carfilzomib] | – | severe side effects [1]: neuropathies, fatigue, and anemia
8 | C13I: array RGS2^5–16 peptide, C13 substituted by I (MFLAVQHDIRPM; UniProt P41220 5-16, looked up, variant C13I) | -87.24 | –
9 | D12R: array RGS2^5–16 peptide, D12 substituted by R (MFLAVQHRCRPM) | 184.9 | FBXO44^FBA binding in peptide microarray (in words) (FBXO44^FBA): enhanced FBXO44^FBA binding; basal RGS2 protein expression versus RGS2^WT (Fig. S4) (HEK-293T cells): trend towards decreased expression

Continued, in another order:

Row | Mean % difference from parent peptide (FLAG immunoreactivity) (FBXO44^FBA) [%] | Compound | other results
10 | 31.38 | D12L: array RGS2^5–16 peptide, D12 substituted by L (MFLAVQHLCRPM; UniProt P41220 5-16, looked up, variant D12L) | –
11 | -88.01 | C13M: array RGS2^5–16 peptide, C13 substituted by M (MFLAVQHDMRPM; UniProt P41220 5-16, looked up, variant C13M) | –
12 | -88.12 | C13V: array RGS2^5–16 peptide, C13 substituted by V (MFLAVQHDVRPM; UniProt P41220 5-16, looked up, variant C13V) | –
13 | 32.23 | D12T: array RGS2^5–16 peptide, D12 substituted by T (MFLAVQHTCRPM; UniProt P41220 5-16, looked up, variant D12T) | –
14 | -75.39 | C13D: array RGS2^5–16 peptide, C13 substituted by D (MFLAVQHDDRPM; UniProt P41220 5-16, looked up, variant C13D) | –
15 | 59.62 | D12Q: array RGS2^5–16 peptide, D12 substituted by Q (MFLAVQHQCRPM; UniProt P41220 5-16, looked up, variant D12Q) | –
16 | -27.71 | R14A: array RGS2^5–16 peptide, R14 substituted by A (MFLAVQHDCAPM) | FBXO44^FBA binding in peptide microarray (in words) (FBXO44^FBA): modest effects, with only one or two substitutions for each reaching significance
17 | -53.92 | C13K: array RGS2^5–16 peptide, C13 substituted by K (MFLAVQHDKRPM; UniProt P41220 5-16, looked up, variant C13K) | –
18 | -30.63 | P15G: array RGS2^5–16 peptide, P15 substituted by G | FBXO44^FBA binding in peptide microarray (in words) (FBXO44^FBA): decreased binding; change of RGS2 protein levels with MG-132 (Fig. S4) (HEK-293T cells): none of these mutations resulted in significant changes in basal expression or response to MG-132; basal RGS2 protein expression versus RGS2^WT (Fig. S4) (HEK-293T cells): none of these mutations resulted in significant changes in basal expression
19 | -86.63 | C13T: array RGS2^5–16 peptide, C13 substituted by T | –
20 | 31.8 | D12Y: array RGS2^5–16 peptide, D12 substituted by Y (MFLAVQHYCRPM; UniProt P41220 5-16, looked up, variant D12Y) | –
